Laboratory results: article PMC4562469 (Science translational medicine, 2014)

How the values were obtained:
[1] = biological target: recombinant soluble rhesus CD4 (Macaca mulatta (rhesus macaque), UniProt P16003); assay: ELISA
[2] = biological target: recombinant soluble human CD4 (human, UniProt P01730); assay: ELISA

Sequence of recombinant soluble rhesus CD4 (P16003 26-396): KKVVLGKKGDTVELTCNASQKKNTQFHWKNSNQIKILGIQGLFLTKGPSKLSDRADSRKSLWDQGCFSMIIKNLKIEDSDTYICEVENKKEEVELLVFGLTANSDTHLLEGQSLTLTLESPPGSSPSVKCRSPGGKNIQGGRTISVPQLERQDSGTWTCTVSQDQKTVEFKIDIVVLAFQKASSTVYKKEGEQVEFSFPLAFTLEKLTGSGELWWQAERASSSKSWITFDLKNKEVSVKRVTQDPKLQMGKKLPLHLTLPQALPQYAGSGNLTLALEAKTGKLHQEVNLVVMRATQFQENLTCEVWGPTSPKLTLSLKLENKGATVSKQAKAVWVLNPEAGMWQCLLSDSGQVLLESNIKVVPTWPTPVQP

B1: mAb 2D5 (anti-CD4 monoclonal antibody) (antibody, V domains shown)
VH: QVKLQQSGPELKKPGETVKISCKASGYTFTDYSMHWVKQAPGKGLKWLGRINTETGEAKYVDDFMGHLAFSLETSASTAYLQINNLKNEDTATYFCARYDGYSWDAMDYWGQGTSVIVSS
VL: DIMLTQSPASLTVSLGQRATMSCRASQSVSTSRYSYMHWYQEKAGQPPQLLIKYASNLESGVPARFSGSGSGTDFTLNIHPVEAEDTATYYCQHSWEIPYTFGGGTKLEIK
[1]
  binding result: binds
[2]
  binding result: binds
